Assay results reported in US20240368303A1 (ZHEJIANG SHIMAI PHARMACEUTICAL, published 2024).

What was measured:
[1] = biological target: T1, recombinant human GPC3 (full-length extracellular domain) (human, UniProt P51654 25-559); experiment: ELISA, GPC3 coated at 50 ng per well, anti-FLAG-HRP detection
T1 construct: extracellular domain; Bought protein coated on ELISA plates; also called human GPC3 protein
Description: The hexahistidine-tagged 1A1 Fab and 6A4 Fab were expressed in E. coli strain HB2151 and purified from the soluble fraction of periplasm by using the Ni-NTA resin. Then ELISA was performed by using standard protocols to measure binding affinity to recombinant human GPC3 (full-length extracellular domain). Briefly, the recombinant human GPC3 (ACROBiosystems) was coated on Corning EIA/RIA high-binding 96-well plates (Corning Inc.) at 50 ng per well overnight at 4° C. and blocked with 3% nonfat milk in PBS (pH7.4). Fivefold serially diluted antibodies were added and incubated at room temperature for 2 h. The plates were washed with PBS containing 0.05% Tween 20. Bound antibodies were detected by HRP-conjugated anti-FLAG tag antibody (Sino Biological). The assay was developed at room temperature with TMB substrate (Solarbio) and OD value was measured at 450 nm with a microplate reader.

[2] = biological target: T1, recombinant human GPC3 (full-length …); experiment: ELISA, GPC3 coated, biotinylated antibody, streptavidin-HRP detection
Description: (§1) ELISA was performed according to standard protocols, to determine binding affinity of anti-GPC3 1A1 mAb to recombinant GPC3 from human, cynomolgus, and mouse and anti-GPC3 6A4 mAb to recombinant human GPC3. Briefly, recombinant GPC3 (AcroBiosystems) was coated on Corning EIA/RIA high-binding 96-well plates (Corning Inc.) at 50 ng per well overnight at 4° C. and blocked with 3% nonfat milk in PBS (pH7.4). Fivefold serially diluted biotinylated antibodies were added and incubated at room temperature for 2 h. The plates were washed with PBS containing 0.05% Tween 20. Bound antibodies were detected by HRP-conjugated streptavidin (Sino Biological). The assay was developed at room temperature with TMB substrate (Solarbio) and monitored at 450 nm with a microplate reader. The half-maximal binding (EC₅₀) was calculated by fitting the data to the Langmuir adsorption isotherm.

[3] = biological target: T2, recombinant cynomolgus GPC3 (cynomolgus, UniProt A0A2K5VK50 24-558); experiment: as above
T2 construct: Bought protein; also called cynomolgus GPC3 protein
Description: as §1

recombinant mouse GPC3 = biological target: T3, recombinant mouse GPC3 (mouse, UniProt Q8CFZ4 25-558, limits assumed); experiment: as above
T3 construct: Bought protein; also called mouse GPC3 protein
T3 sequence (Q8CFZ4 25-558 limits assumed): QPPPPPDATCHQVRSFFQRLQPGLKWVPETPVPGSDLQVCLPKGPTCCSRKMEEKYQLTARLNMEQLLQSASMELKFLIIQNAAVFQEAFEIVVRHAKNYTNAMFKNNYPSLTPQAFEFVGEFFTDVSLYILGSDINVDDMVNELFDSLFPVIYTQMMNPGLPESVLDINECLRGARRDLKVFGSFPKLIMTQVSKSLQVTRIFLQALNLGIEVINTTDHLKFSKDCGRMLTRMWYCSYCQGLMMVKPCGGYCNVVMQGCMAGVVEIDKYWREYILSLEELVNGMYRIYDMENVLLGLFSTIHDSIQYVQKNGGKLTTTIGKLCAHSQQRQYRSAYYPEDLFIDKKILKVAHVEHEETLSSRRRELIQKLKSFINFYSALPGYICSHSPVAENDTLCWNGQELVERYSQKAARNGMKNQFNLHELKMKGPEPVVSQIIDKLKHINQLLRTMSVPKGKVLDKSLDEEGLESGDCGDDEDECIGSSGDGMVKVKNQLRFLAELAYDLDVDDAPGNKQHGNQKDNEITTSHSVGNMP
Description: as §1

B1: 1A1 Fab (Fab, V domains shown)
VH: EVQLVQSGAEVKKPGASVKVSCKASGYTFTSYGISWVRQAPGQGLEWMGWISAYNGNTNYAQKLQGRVTMTTDTSTSTAYMELRSLRSDDTAVYYCARAGTPTQILRYFDWLSQPFDYWGQGTLVTVSS
VL: EIVLTQSPLSLPVTLGQPASISCRSSQSLVYSDGNTYLNWFHQRPGQSPRRLIYKVSNRDSGVPERFSGSGSGTDFTLKISRVEAEDVGVYYCMQSTHWPLTFGGGTKVEIK
notes: Human Fab from a phage library, kappa light chain, hexahistidine-tagged, made in E. coli HB2151, detected with anti-FLAG antibody; also called Fab clone 1A1; anti-GPC3 1A1 Fab
- EC50 [1]: ~190 nM

B2: anti-GPC3 1A1 mAb (antibody, human IgG1, kappa, V domains shown)
VH: EVQLVQSGAEVKKPGASVKVSCKASGYTFTSYGISWVRQAPGQGLEWMGWISAYNGNTNYAQKLQGRVTMTTDTSTSTAYMELRSLRSDDTAVYYCARAGTPTQILRYFDWLSQPFDYWGQGTLVTVSS
VL: EIVLTQSPLSLPVTLGQPASISCRSSQSLVYSDGNTYLNWFHQRPGQSPRRLIYKVSNRDSGVPERFSGSGSGTDFTLKISRVEAEDVGVYYCMQSTHWPLTFGGGTKVEIKR
notes: Intact human IgG1 kappa, about 150 kDa on non-reducing SDS-PAGE
- EC50 [2]: 0.6 nM
- EC50 [3]: 0.58 nM
- EC50 (recombinant mouse GPC3): 1.12 nM

B3: 6A4 Fab (Fab, V domains shown)
VH: EVQLVQSGAEVKKPGASVKVSCKASGYTFTSYAMHWVRQAPGQRLEWMGWINAGNGNTKYSQKFQGRVTITRDTSTSTAYMELRSLRSDDTAVYYCARDPSHWGQGTLVTVSS
VL: not shown
notes: Human Fab from a phage library, kappa light chain, hexahistidine-tagged, made in E. coli HB2151, detected with anti-FLAG antibody; also called Fab clone 6A4
- EC50 [1]: ~234 nM

B4: anti-GPC3 6A4 mAb (antibody, V domains shown)
VH: EVQLVQSGAEVKKPGASVKVSCKASGYTFTSYAMHWVRQAPGQRLEWMGWINAGNGNTKYSQKFQGRVTITRDTSTSTAYMELRSLRSDDTAVYYCARDPSHWGQGTLVTVSS
VL: not shown
notes: Intact human IgG1 kappa
- EC50 [2]: 4.5 nM
